pIC50, pKd: −log10 of the molar value.

In one test the target is HLA-A*01:01. Briefly: IEDB peptide-MHC binding, purified MHC/competitive/radioactivity; filed as Kd, often an IC50 or EC50 that approximates it; ≥ and ≤ were set here for values at or beyond the usual limits of such assays.
The target of a further test is HLA-A*23:01. The description is as above.
The next test deals with HLA-A*24:02. Described as above.
Another test concerns the target HLA-A*26:01. Described as above.
For a further test, the target named is HLA-A*29:02. The description is as above.
In another test the target is HLA-A*30:02. The test is described as above.
Another test addresses HLA-A*02:01. Nature of the test: IEDB peptide-MHC binding, purified MHC/competitive/fluorescence; ≥ and ≤ were set here for values at or beyond the usual limits of such assays.
A further test deals with HLA-A*30:01. Nature of the test: IEDB peptide-MHC binding, purified MHC/competitive/radioactivity; filed as Kd, often an IC50 or EC50 that approximates it; ≥ and ≤ were set here for values at or beyond the usual limits of such assays.
For a further test, the target named is HLA-A*33:01. Described as above.
The target of the next test is HLA-A*68:01. Described as above.
The target of a further test is HLA-A*02:03. The description is as above. To be noted: source organism: Dengue virus 3 Martinique/1243/1999.
Another test addresses HLA-B*08:01. The test is described as above.
Another test deals with HLA-A*03:01. The description is as above. Conditions: source organism: Vaccinia virus WR.
The next test concerns the target HLA-A*11:01. Described as above. To be noted: source organism: Vaccinia virus WR.
The next test concerns the target HLA-A*31:01. The test is described as above. Conditions: source organism: Vaccinia virus WR.
Where [1] appears, read: source organism: SARS coronavirus Tor2.
Where [2] appears, read: source organism: Zaire ebolavirus.
[3] abbreviates: source organism: Dengue virus 3 Martinique/1243/1999.
Where [4] appears, read: source organism: Sudan ebolavirus.
[5] abbreviates: source organism: Dengue virus 1 Brazil/97-11/1997.
[6] abbreviates: source organism: Vaccinia virus WR.
Setting [7] is: source organism: Lassa virus Josiah.
Setting [8] is: source organism: Dengue virus 2 Jamaica/1409/1983.
The mark [9] stands for this setting: source organism: Lassa virus GA391.
Setting [10] is: source organism: Mammarenavirus brazilense.

In general, pKd refers to −log10 of the Kd, conventionally taken in molar units. On to ETLLPLTQY, for which the pKd with HLA-A*01:01 (setting [1]) is not above 4.48; with HLA-A*23:01 (setting [1]), not above 4.11; with HLA-A*24:02 (setting [1]), not above 4.11; with HLA-A*26:01 (setting [1]), 7.36; in the test with HLA-A*29:02 (setting [1]), 6.58; with HLA-A*30:02 (setting [1]), 5.37.

By pIC50 is commonly meant −log10 of the IC50, conventionally taken in molar units. In the test with HLA-A*02:01 (setting [2]), KRTSFFLWV gave a pIC50 not above 4.10.

EVKTCTWPK: the pKd is 5.03 with HLA-A*30:01 (setting [3]), 8.07 with HLA-A*33:01 (setting [3]) and 7.60 with HLA-A*68:01 (setting [3]).

Sequence GVSTDIPSA gave a pIC50 in the test with HLA-A*02:01 (setting [4]) of 5.68.

In the case of MLKRVRNRV, the results for the pKd with HLA-A*02:03 and with HLA-B*08:01 (setting [3]) were 7.84 and 7.73, respectively.

Consider QVSDVDKLV, for which, in the test with HLA-A*02:01 (setting [2]), the pIC50 is not above 4.15.

Take TFKMRPMFA: in the test with HLA-A*30:01 (setting [5]), the pKd is 7.64.

Take CIKSHSVSL: the pKd with HLA-B*08:01 (setting [6]) was 8.64.

For the sequence TTTGIGYQPY, the negative logarithm of the Kd (pKd) is 6.90 with HLA-A*01:01 (setting [1]); not above 4.15 in the test with HLA-A*23:01 (setting [1]); not above 4.15 with HLA-A*24:02 (setting [1]); 7.25 with HLA-A*26:01 (setting [1]); 8.06 with HLA-A*29:02 (setting [1]); 6.69 in the test with HLA-A*30:02 (setting [1]).

Take GIDVTDLFA: the pKd was 6.58 in the test with HLA-A*01:01 (setting [7]); not above 4.16 with HLA-A*23:01 (setting [7]); not above 4.11 with HLA-A*24:02 (setting [7]); not above 4.11 with HLA-A*26:01 (setting [7]); not above 4.10 with HLA-A*29:02 (setting [7]); not above 4.39 with HLA-A*30:02 (setting [7]).

As to MDLEKRHVL, the pKd with HLA-B*08:01 (setting [8]) was 7.17.

As to NTLISSDGAR, the pKd in the test with HLA-A*03:01 was 5.63; in the test with HLA-A*11:01 it was 6.44; with HLA-A*29:02 (setting [6]), not above 4.33; with HLA-A*31:01 it was 6.59; with HLA-A*33:01 (setting [6]), 6.54; with HLA-A*68:01 (setting [6]) it was 8.22.

Regarding RYRSGFWII, the negative logarithm of the Kd (pKd) in the test with HLA-A*30:01 (setting [6]) was 8.06.

TYTEIEPKL: the pKd with HLA-A*01:01 (setting [1]) is not above 4.11; in the test with HLA-A*23:01 (setting [1]), not above 4.67; with HLA-A*24:02 (setting [1]), not above 4.53; with HLA-A*26:01 (setting [1]), not above 4.11; with HLA-A*29:02 (setting [1]), 4.91; in the test with HLA-A*30:02 (setting [1]) it was not above 4.10.

The sequence VLVHPQWVL gave a pIC50 with HLA-A*02:01 (source organism: Homo sapiens) of 5.68.

Take ACADGTRHTY: the pKd with HLA-A*01:01 (setting [1]) is 5.67; with HLA-A*23:01 (setting [1]), not above 4.15; with HLA-A*24:02 (setting [1]), not above 4.15; with HLA-A*26:01 (setting [1]) it was not above 4.06; with HLA-A*29:02 (setting [1]), 5.21; with HLA-A*30:02 (setting [1]), 7.48.

With TAQEQHNAA, in the test with HLA-A*02:01 (setting [4]), the pIC50 is 4.56.

Take YCNYSRYWYL: the negative logarithm of the Kd (pKd) with HLA-A*01:01 (setting [9]) is not above 4.15; with HLA-A*23:01 (setting [9]), 5.94; in the test with HLA-A*24:02 (setting [9]), 5.48; in the test with HLA-A*26:01 (setting [9]) it was not above 4.16; with HLA-A*29:02 (setting [9]), 5.08; with HLA-A*30:02 (setting [9]), 4.92.

On to KTTFSLHYA, for which, in the test with HLA-A*30:01 (source organism: Dengue virus 1 Singapore/S275/1990), the pKd is 7.84.

Take SSAMVQVHS: the pIC50 with HLA-A*02:01 (setting [2]) is not above 3.23.

In the case of KIRPTRSVY, the pKd with HLA-A*30:01 (setting [6]) is 8.14.

On to SLLRNDVPM, for which, in the test with HLA-B*08:01 (setting [3]), the pKd is 7.32.

Take QMISSIDRFF: the values for the negative-log Kd (pKd) with HLA-A*23:01 (setting [10]), with HLA-A*24:02 (setting [10]) and with HLA-A*29:02 (setting [10]) were 6.12, 5.33 and 5.73, respectively.

Regarding KLRPRWLDA, the pKd with HLA-A*30:01 (setting [5]) was 7.65.

As for NPGARNARL, the negative-log Kd (pKd) with HLA-B*08:01 (setting [6]) is 8.21.

For SLNTKFKTL, in the test with HLA-B*08:01 (setting [6]), the negative logarithm of the Kd (pKd) was 8.06.

Regarding FIRLKLTKL, the pKd with HLA-B*08:01 (setting [6]) was 6.87.

In turn, LLPPELSET gave a pIC50 with HLA-A*02:01 (source organism: Human alphaherpesvirus 1 strain 17) of 5.31.

In turn, NQNALVCGL showed a pIC50 with HLA-A*02:01 (setting [4]) not above 3.91.

Regarding LLMLCLHHA, the negative logarithm of the IC50 (pIC50) with HLA-A*02:01 (setting [2]) is 6.39.

For the sequence SMFMSLLPA, the negative logarithm of the Kd (pKd) with HLA-B*08:01 (setting [6]) is 7.26.

KTSSGRMPV: in the test with HLA-A*30:01 (setting [6]), the pKd is 8.71.

Take AIKRRLRTL: the pKd with HLA-B*08:01 (setting [3]) is 8.01.

With SVYIRPTSL, the pKd with HLA-B*08:01 (setting [6]) is 7.97.

RARVSQGAG: in the test with HLA-A*30:01 (setting [5]), the pKd is 6.71.

Consider SIKRNYPYLF, for which the values for the pKd in the test with HLA-A*23:01 (setting [10]), with HLA-A*24:02 (setting [10]) and in the test with HLA-A*29:02 (setting [10]) were 6.12, 5.99 and 5.63, respectively.

As for KNISGQSPA, the pIC50 with HLA-A*02:01 (setting [2]) is not above 3.64.

In the case of YTFFSYLMK, the pKd with HLA-A*03:01 is 8.01; with HLA-A*11:01, 9.25; with HLA-A*30:01 (setting [6]), 6.33; in the test with HLA-A*31:01, 5.40; with HLA-A*33:01 (setting [6]), 5.52; in the test with HLA-A*68:01 (setting [6]) it was 9.09.

For SAKYINSSI, the pKd with HLA-B*08:01 (setting [6]) was 6.86.

For KVRSNAALG, in the test with HLA-A*30:01 (setting [8]), the pKd is 8.61.

The record behind these values is the Immune Epitope Database (IEDB).
